Laboratory results taken from the DeepSol protein solubility set.

Assay: soluble on expression in E. coli; label from the status in PepcDB or PDB records

Sequence	soluble on expression in E. coli
MIYIIQGGRAGNQLFSYAFAQRIRQIYGNEEICFVLSAIKNKAMDDCNGAYWEDSLKYFDVQDYSVSFEDNIVTKEGNLFQRFLYQFWRGSRKLNNIIFSLTGVEFSKFSLLLNRVVFNLISRFGLYIITHGFSESIKKTSFKNKFIYGSFEDNRWFSDIESKLRLEFKPKYNLNEKALQLYNELLNQNAICVSLRKWSIDVHDDSELEKREICDRNYYEKAINHIINTVEKPIFVVFSDDLEWASELMRSIIKDRYPLLVEKGDNNVAEKLFLMSTCKHFIIANSTFSWWAAYLGEFSDKIVVSPNIWFKSNKQFHPLILDDWIKINCQLEHHHHHH	not soluble
RVAHLLKKIHNSRPLLSMLKRMEMEPITPEIMLNKINASLSREVLTHHIVRKSLTYLEEHIPSLDSRFFTVVHGDVNHNNWLLSDRDELFLVDWEGAMIADPAIDIGMLLYNYVPQQQWSEWLETYGVQESLNLNKRMKWY	not soluble
MSLSTFDYDLIIIGSGPSGRAAAIQAGKLKRRVLVIDRKDRLGGVSVHTGTIPSKTLRETVLNLSGWRERSFYGRSYRVKDRISAEDLKARLHMTLDYEVDVLEHQFNRNHIDTLNGLARFVGPHEIEVATEAGDTTRLTAAKFLIATGTKTYRPDYVPFNGKTVVDGDDFLEMERIPRSLAVIGAGVIGVEYASMFSALDVRVTLIEPRETFLDFIDRTLIQEFTHQIRENGVDLRLGSAVEKIEDTGSHIEISLANGRHIRAEMLLFAAGRMGATSALNLDAVGLETDHRNRITVDRKTYQTSVPHIYATGDVIGHPSLASTSMQQGRVAACHALETPTLPESPWFPYGIYSVPEMSTCGMSEEELQERGIPYEVGVARFRETSRGHIMGLEHGMLKMLLSLKTRRVLGVQIVGEGATELIHIGQAVMNLKGTVDYFVQNTFNYPTLAEAYRTAGLDAFNRMPIPEEFKVKEGHHHHHH	soluble
MGSDKIHHHHHHMTQQNGKVYLVGAGPGDVAYLTVKAYNLLATAQVLVYDALVDEQLLQCVSPDCLKLDVGKRGGKPSTPQADINHLLVKYCQEGALVVRLKSGDPFIFGRCTSEIEALKAAGCKFEVVPGISSSIAAPLLAGIPLTDPVMSRCFAVLTAHEPEVLDWEALSRLDTLVILMGGKNLADIINELLRRGQSHLTPIAIIRWAGTPSQQIWTGQLGDILEQTRGLSLSPAVIVIGEVVGLRKYLQPEKIFPENSTTPMSSNQPLTGKTILVTRSSGQSSQFSDRLTTLGATVIEMPALEIGSPSSWEELDQAIANLSQFEWLILTSTNGVDYFFERLNLQGKDTRALAGVKIAVVGEKTSQSLKQRGIQADFIPPNFVADSLVEHFPESLLNKKILFPRVESGGREILVKELSAKGAEVIEVAAYQSCCPSSIPPAAELALKNHTIDIITFASSKTVQFFHQLVDNIFPHNIPNTLAGICIASIGPQTSKTCHTLLGRVDVEAEEYTLDGLTQSIINWALKV	not soluble
MGSDKIHHHHHHMTIVSAFLLPGSPLPQLRPDITPWGRIREGLSRAGKALAESKPDCVLVYSTQWFAVLDQLWITRARSTGVHVDENWHEFGEQAFDIHSDCALAQRCVDACNAAGIKTRGVDYDQFPIDTGTITATTLMGFGSASLPVVIAANNLYHSAEQTEQLGAIASAALQDKRAAVLGIGGLSNSAFRENIDLEKDHILSEADDKWNQRVLALMESGDIEAIRAILPQYSTEARPDMGLKHFYWLLGAMNASFKKATVHEYAPLYGSGGAIVQFDVQ	not soluble
MQADPAIRRFAKKRNKRVDRMILDSNYMHTSIDRYFPNESKRRGRPDIIYLLLEMTQESILNHKNQLRTYVHTRNNQVIRISPITRMPKSYNRFIGLFEDLFEKRIITNNGKELLSMEESSLGDLINSIRRDRTILLHPKGEMRKPSEFISNANILIVIGGFSEGDFISDTSFINERYAIFDQELTIWSVANEMVANYERAVGLT	not soluble
MAVRFIREDGDEILRKVSKKVDVIDERIKTLLDDMAETMYAANGVGLAAPQVGVLKRVVVIDVGDGLMELINPEIVEQEGEQIDIEGCLSIPGVAGEVKRPARVVVEALNREGEKITVEGKELLAVALCHEIDHLDGILFTDKVIRFIDEDEMERRRENKRRNKIRQNKG	not soluble
AHHHHHHASAKWVCKICGYIYDEDAGDPDNGISPGTKFEELPDDWVCPICGAPKSEFEKLEDGSRGAYILLLYLPRNSIIKTKGKVFRLKKGYYAYVGSGMNSLEGRVLRHLRKDKKLHWHIDYLTLIATPLKAYLVPSPVRIEEELSKSLNMVGKVVKGFGSSDLSVPGNLFFFDKDPSEKIEEIVWAFLSRKPKSDDLRQDTS	soluble
GQDTGEDNLAIKGITTLNDLTMVNVSGPGMKGMVGMASRVFGAMSSAGVSIVLITQSSSEYSISFCIEADDKLKAQQVLADAFELELKDGLLEPVDFIDDVSIVTLVGDGMRTSRGVASRFFSSLAEVNVNIVAIAQGSSERAISAVIPEDKISEAIKACHENLFNSKYF	not soluble
MGSDKIHHHHHHEEYFNAIRTNIQLSGVDIKVVGITSVKSNEGKSTTAASLAIAYARSGYKTVLVDADIRNSVMPGFFKPMTKITGLTDYLAGTTDLSQGLCDTDIPNLTVIESGKVSPNPTALLQSKSFENLLATLRRYYDYVIVDCPPLGLVIDAAIIAQKCDAMVAVVEAGNVKCSSLKKVKEQLEQTGTPFLGVILNKYDIATEKYGEYGNYGKKA	not soluble
MMGVKAEALTGGFSSAVFDSQRIFKKLMDGMARPGTPQTIETAVAPPLPLAAATGAVLLALCDHDTPVWLNGALRKTAVPGWIGFHTGAPATEEKGAAHFAVIEAGSAIASFGLFAQGSQEYPDRSTTLIIELSDLDGGRELLLSGPGIRHVNIISPSGLPDIFPMLWAENNAIFPRGVDVILTAGDKFVCLPRTTRIKPVEA	not soluble
MSLDTMIASLEQSKKRAEEELSETESIRKEAEKLHKELQQQIIELNSKKDKMLEEAEQQAAEKVKAAMKEAEDIIHELRTIKEEHKSFKDHELINAKKRLEGAMPAFEKSKKPEKPKTQKRDFKPGDEVKVLTFGQKGTLLEKTGGNEWNVQIGILKMKVKEKDLEFIKSAPEPKKEKMITAVKGKDYHVSLELDLRGERYENALSRVEKYLDDAVLAGYPRVSIIHGKGTGALRKGVQDLLKNHRSVKSSRFGEAGEGGSGVTVVELKEGHHHHHH	soluble
MGSDKIHHHHHHMEATTNNMKDVTGAELLICTIGHSTHPLEEFINLLKKNEVTHLLDVRTVPRSRHNPQFNKETLPDALGAIGIKYTHLSGLGGLRHARKDSINEGWRNASFRGYADYMQTQEFVENVNRVIELAAHDRCALMCAEAVPWRCHRSLIADALVVRGVRVEDIIDNHGRKPHSLTPWAQAEGVRIFYPAQQGRLI	not soluble
MGSDKIHHHHHHMKRPPKKPATDRSFVVALSRGLEVLRAFGPNDGLLGNQELAARTKLPKPTISRLTYTLTKLGYLTQVPRFEKYQLAPAAMSLGYAALANLGVRHLSQPYRDELMQQTGGAVAVGARDRISMIYVGQARSSLTVGVQLDVGSRIPIATTAMGRAYLCALQSEERAVLMKEMREYYGSRWPRIKEGIERSEEMVAKHGFAISVGEWQDDVHAAGVALTLNDGTGPYAFNCGAPAFRFTEERLINDIGPRLVAMVRKIEAALGGVAAPQPRKSDNKRTKGGKVARVVEGIR	not soluble
METDGDPTNEIPGSSMAFEVANHTVTEEPSPLDRILAEGRSFNGGNWSSDDLRSLLDGVMKYGTKIEAINYIHRNIVKKRSIEEIKAKIDEIREIIKEHKEIILPECYKNKWIEAGHHNITPPPFCQVDPNDDWSSIMGKIVDHHHGSINKTLPSLRDTYETLFENLALESKTHENAVVTKLLTAKATRTDSQNIRWPVIYRFMKACATLEEQMPALNELEAAVVSKVLDTIETEATTTPDTEKSILAGIFSECQQGNYRFCEQDYPPNVMAAVQLFVDPLRTRFHAIPEVASEVELINFTKDNQPSTSSN	not soluble
RGVAVYVDHVDGDIHPVTYELIGKARELAAKINHPVYAVFIGQNIKDKAEELLHYGVDEVFVYDDAALKYFRIEPYTKAFEDFINKNKPSTILVGATTVGRSLAPRIAARFRTGLTADCTILDMKENTDLVQIRPAFGGNIMAQIINPNNRPQLATVRYKVMNAPVRSEEKKGKITLCSLKDITSNIEVLKVVKKQVEEN	not soluble
INAVRAALLENAHFMEKFYLQNGRFKQTSTKWPSLPIKEAEGFCIRLNGIARGALDSKFMLKAVAIDKDKNPFIIKMNENLVTFICKKSASSCSDGLDYFKGNDKDCKLLK	not soluble
MGSDKIHHHHHHMKNYKFLVPILLVALLGGSVYKTYSDREKINKQYDNDITQARQNRKLEVYVNAEEDYLDALKLKDSAKLRAELGEMYIEAEDLRTAAKWGESLISEYPKEQVGYEFLIQVYLEQKDYASCFRIKDEADGLKISSKKIEEIISDIKYEYYLEGEYAQVEEFSNGYAAVKKEKKWGYLNSKGHRVIESEFEEAGAFAKEVAPVIDDKGRAFYIDNEGNRKIVIDFVDNIEKLGYMSMDNIFPVNDGKKWSLYSLDSKKKIAGDYDEVSAMGNGVAAVKSDDKWSLIDTKGKKVTKDKYDSVVMDSKGIVCRNDRVFAKQNGYYYLFDSKGNKVVKTKFDDARLFADDGYAAVCVDGKWGFVDKDGKQVIKPQFNEAHSFSNGLAAVRFSNGWGYVDEKGNKVIETGFDDACDFNEQGKTFVKTDDKWQVLTLYLYNHES	not soluble
MNYRDLTLRERQVLGIIIQSYVVSAMPVGSRTIARNYNLGLSDATIRNVMADLEADGFISQPHTSAGRVPTDKGYRYYVDLIMNVSRIDEEEKRMIDDRFSNRNSELKGTSAEVLGTAARVLGSISRQLAVVLPPRLSNAVFERLDIVQLASSRIMVVIAIQSLFVKTIVMELNAEISRQKIDAVVDVLNERLPGLTLEEIRSTIAQRLSDFKGSEELMNSIVSSADTLFDESSILEQLYVSGTENIVDQPEFKQPEKVRDIITMIEDKFGMARLVDNAVPSALRQVSECEVAISIGTENRTGKAADLTIVSSPYFAGKMIGRVGVMGPKRMNYEHAVRVVNYMAGCLSEALSGNN	not soluble
MGSDKIHHHHHHMSEQKEDLFKPVGEAAAEVEDESIAEQNKANDGVKLTGAQDAMGHPVQEIESLCMNCGKNGTTRLLLTSIPYFREIIIMSFDCPHCGFKNCEIQPASQIQEKGSRYVLKVECREDFNRQVIKSETATCKFVELDIEIPAKRGQLTTVEGLLSEMIDDLSQDQEMRKSIDEALYKKIDDFIQKVKSYINCEPNTIPITFILDDPAGNSWIEYKPGEPQHKWSHTQYVRTDEQNVQVGIITRDQLEQRRQEQLKQLANRERNPSESVKVGSANPQFLSDATDIENFNNEVQTFRASCPSCTQECETHMKPVNIPHFKEVIIMSTVCDHCGYKSNEVKTGGAIPDKGRRITLYCDDAADLSRDILKSETCSMVIPELHLDIQEGTLGGRFTTLEGLLRQVYEELESRIFTQTSDSMDEATKARWVEFFAKLKEAIAGKVKFTVIMEDPLAGSYIQNVYAPDPDPNMTIEDYERTKEQNEDLGLSDIKVE	not soluble
MGHHHHHHSHMEFIVDSVDKTMHIGRQLGSLVNKGDILCLTGDLGTGKTHISKGIAEGLGIDEHITSPTFNIVNEYHSGRLTLYHFDVYRVNDPDEIEAIGFDEYIFGDGVSLIEWANYIEELIPEEYIHIKIEKLPDMGENFRKITINGYGDRYNYIKEIKE	not soluble
